Measurements reported in the nanobody polyreactivity screen of Harvey et al. (2022).

test: yeast display, Sf9 membrane polyspecificity reagent, FACS + sequencing; frameworks hold sequencing errors
Outline: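 Polyreactivity labels are assigned by the sorting gate from which each nanobody was recovered. The gates were low and high (top ~1%), set on anti-HA fluorescence for expression and streptavidin fluorescence for reagent binding. Before sorting, galactose-induced (36–48 hours) yeast display cells were stained for 1 hour at 4 °C with 10% biotinylated, detergent-solubilized Sf9 membrane reagent.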

| Sequence | polyreactivity (PSR sort gate) |
| --- | --- |
| QVQLVESGGGLVQAGGSLRLSCAASGRILSVYVMGWYRQAPGKERELVAAISRNGGRTYYADSVKGRFTISRDNAKNTVYLQMNSLKPEDTAVYYCAKSQRGTVYSYYYWGQGTQVTVSS | high polyreactivity |
| QVQLVESGGGLVQAGGSLRLSCAASGRILSYNAMGCYRQAPGKERELVAGISWSGGSTYYADSVKGRFTISRDNAKNTVYLQMNSLKPEDTAVYYCNKLQGLTWYNSPYGYWGQGTQVTVSS | high polyreactivity |
| QVQLVESGGGLVQAGGSLRLSCAASGRILSYYAMGWYRQAPGKERELVAAISWGGGRTFYADSVKGRFTISRDNAKNTVYLQMNSLQPEDTAVYYCNADSYRWGAHDYWGQGTQVTVSS | high polyreactivity |
| QVQLVESGGGLVQAGGSLRLSCAASGRILTSNAMGWYRKAPGKERELVAAISWSGGSTYYADSVKGRFTISRENAKNSVYLHMNRLKPEDTAGYYCAAPFTTTFDYWGQGTQVTVSS | low polyreactivity |
| QVQLVESGGGLVQAGGSLRLSCAASGRILTSNAMGWYRQAPGKERELVAAISWSGGSTYYADSVKGRFTISRDNAKNTVYLQMNILKPEDTAVYYCAAPLYWVDDFESGWRYYYWGQGTQVTVSS | low polyreactivity |
| QVQLVESGGGLVQAGGSLRLSCAASGRILTYYAMGWYRQAPGKERELVAAISWRAGYTYYADSVKGRFTISRDNAKNTVYLQMNSLKPEDTAVYYCAAETSNRGRRYYYWGQGTQVTVSS | high polyreactivity |
| QVQLVESGGGLVQAGGSLRLSCAASGRILVLNAMGWYIQAPGKERELVADITSGGSTYYADSVKGRFTISRDNEKNTVYLQMISLKPEHTAVYYCAADWNTYPDYLQSYFVSYEYNYWGQGTLVTVSS | low polyreactivity |
| QVQLVESGGGLVQAGGSLRLSCAASGRILVRNAMGRYRQAPGKERELVAVIRWSGGRTSYADSVKGRFTISRDNAKNTVYLQMNSLKPEDTAVYYCNKGGSYPTSNYKSYWVGVDYWGQGTQVTVSS | low polyreactivity |
| QVQLVESGGGLVQAGGSLRLSCAASGRILVVNAMGWYRQAPGKERELVASISQSGGITYADSVKGRFTISRDNAKNTVYLQMNSLKTEDTAVYYCAAKSTWEYDYWGQGTQVTVSS | low polyreactivity |
| QVQLVESGGGLVQAGGSLRLSCAASGRILWGNTMGWYRQAPGKERELVAAISWNGGGTYYADSVKGRFTISRDNAKNTVYLQMNSLKPEDTAVYYCATRYTYSTDTGYDYWGQGTQVTVSS | low polyreactivity |
| QVQLVESGGGLVQAGGSLRLSCAASGRILWSYAMGWYRQAPGKEREFVAAISRGGGTTYYADSVKGRFTISRDNAKNTVYLQMNSLKPEDTAVYYCNAGDHIRKRYGISATWGYGYGYWGQGTQVTVSS | high polyreactivity |
| QVQLVESGGGLVQAGGSLRLSCAASGRILWYNAMGWYRQAPGKERELVAAINRGGSTNYADSVKGRFRISRDNAKNTVYLQMNSLKPEDTAVYYCAAVHYRWWYRSAYDYWGQGTQVTVSS | low polyreactivity |
| QVQLVESGGGLVQAGGSLRLSCAASGRILYFYIGWYRQAPGTEREFVADISSTTSTYYADSVKGRFTISRDNAKNTVYLQMKSLKPEDTAVYYCAAPGDGYAYPIVWYGYSGYYYWGQGTQVTVSS | low polyreactivity |
| QVQLVESGGGLVQAGGSLRLSCAASGRILYGYTMGWYRQAPGKEREFVARITRRGGRTNYADSVKGRFTISRDNAKNTVYLQMNSLKPEDTAVYYCAADPIRDSWWQYFQDGREYDYWGQGTQVTVSS | low polyreactivity |
| QVQLVESGGGLVQAGGSLRLSCAASGRILYKYAMGWYRQAPGKERELVAAISWRGTTTYYADSVKGRFTISRDNAKNTVYLQMNSLKPEDTAVYYCAKDRSYGYFSRPVSQYDYWGQGTQVTVSS | high polyreactivity |
| QVQLVESGGGLVQAGGSLRLSCAASGRILYLNAMGWYRQAPGKERELVAAITRRAGSTRYADSVKGRFTISRDKAKNTVYLQMNSLKPEDTAVYYCAVAYYRNRMDYWGQGTQVTVSS | high polyreactivity |
| QVQLVESGGGLVQAGGSLRLSCAASGRILYPYAMGWYIQAPGKERELVAAITFIGGSTYYADSVKGRFTISRDNAKNTVYLQMNSLKPEDTAVYYCNAKPHRPSLLRWRIGNYWGQGTQVTVSS | high polyreactivity |
| QVQLVESGGGLVQAGGSLRLSCAASGRILYPYAMGWYRQAPGKERELVAAITFRGGNTYYADSVKGRFTISRDNAKNTVYLQMNSLKPEDTAVYYCAKRGGYWHKFDYWGQGTQVTVSS | high polyreactivity |
| QVQLVESGGGLVQAGGSLRLSCAASGRILYRYAMGWYRQATGKERELVAAISWSGGSTYYADSVKGRFTISRDNAKNSVYLQMNSLKPEDTAVYYCAARYKRAYSRDYWGQGTQVTVSS | high polyreactivity |
| QVQLVESGGGLVQAGGSLRLSCAASGRILYSYAMGWYRQAPGKEREFVAAIRRSGGSTYYADSVKGRFTISRDNAKNTVYLQMNSLKPEDTAVYYCAAGRRYSGSYDYWGQGTQVTVSS | high polyreactivity |
| QVQLVESGGGLVQAGGSLRLSCAASGRILYVYAMGRYRQAPGKERELVAAITSGGSTHYADSVKGRFTISRDNAKNTVYLQMNSLKPEDTAVYYCAAYTLRNRGGFNYWGQGTQVTVSS | high polyreactivity |
| QVQLVESGGGLVQAGGSLRLSCAASGRILYWYALGWYRQAPGKERELVAAISRSGGSTSYADSVKGRFTISRDNAKNTVYLQMNSLKPEDTAVYYCAVDRFWRPVRSGTTYDYWGQGTQVTVSS | low polyreactivity |

| Sequence | polyreactivity (PSR sort gate) |
| --- | --- |
| QVQLVESGGGLVQAGGSLRLSCAASGRILYYNDMGWYRQAPGKERELVAAIDRGGSTSYADSVKGRFTISRDNAMNTVYLQMNSLKQEDTAVYYCAVARGGRRKYEYWGQGTQVTVSS | low polyreactivity |
| QVQLVESGGGLVQAGGSLRLSCAASGRILYYYTMGWYRQAPGKEREFVAAISSRGGSTYADSVKGRFTISRDNAKNTVYLQMNSLKPEDTAVFYCNARLKPRWGGRYDYWGQGTQVTVSS | high polyreactivity |
| QVQLVESGGGLVQAGGSLRLSCAASGRILYYYVMGWYRPAPGKEREFVAAISSSASNTYYADSVKGRITISRDNAKNTVEFQMNSLKPEDTAVYYCAADTLWLDWQGYDYWGQGTQVTVSS | low polyreactivity |
| QVQLVESGGGLVQAGGSLRLSCAASGRILYYYVMGWYRQAPGKERELVAAITRGGSTDYADSVKGRFTISLDNAKNTVYLQMNSLKPEDTAVYYCAAVVYLHYSVDYWGQGSQVTVSS | low polyreactivity |
| QVQLVESGGGLVQAGGSLRLSCAASGRINYFYAIVWSRQAPGKEQELVAAISTSGGSTYYADCVKGRFTISRDNAKNTLYLQMNSLTPEETAVYDCAARFRYYGSEYDYWGQGTQVTVSS | low polyreactivity |
| QVQLVESGGGLVQAGGSLRLSCAASGRIPVNAMGWYRQAPVKERELVAAISVSGGSTNYADSVKGRFTISRDNAKNTVYLQMNSLKPEDTAVYYCNADPDWWYPYNYWGQGTQVTLSS | low polyreactivity |
| QVQLVESGGGLVQAGGSLRLSCAASGRIQYNAMGWYRQAPGKEREFVAAISWSGGTTYYADSVKGRFTISRDNAKNTVYLQMNRLKPEDTAVYYCATPYTHWGQGTQVTVSS | high polyreactivity |
| QVQLVESGGGLVQAGGSLRLSCAASGRISDVYVMVWYRQAPGKERELFAAITWSGGDTYYADSVKGRFTISRDNAKNTVYLQMNSLKPEDTEVYYCTADTGKWGGNGWYDFDYWGQGTQVTVSS | low polyreactivity |
| QVQLVESGGGLVQAGGSLRLSCAASGRISESNDMGWYRQAPGKEREVVAAISSSGGSTYYADSVKGRFTISRDNAKNTVYLQMNSLKPEETAVDYCNAVYYRTVLKIGVYEYDYWGQGTQVTVST | low polyreactivity |
| QVQLVESGGGLVQAGGSLRLSCAASGRISFYYAMGWYRQAPGKERELVAAISRGGSTYYADSVKGRFTISRDNAKNTVYLQMNSLKPEDTAVYYCAATYSGVDTPSGYDYWGQGTQVTVSS | low polyreactivity |
| QVQLVESGGGLVQAGGSLRLSCAASGRISFYYARGWSIQAPGKERELVAAISRGGSTYYADSVKGRFTISRDNAKNTVYLQMNSLKPEDTAVYYCAATYSVVDTPSGYDYWGQGTLVTVSS | low polyreactivity |
| QVQLVESGGGLVQAGGSLRLSCAASGRISGYAMGWYRQAPGKERELVAAISTRGGTTYYADSVKGRFTISRDNAKNTVYLQMNSLSPEDTAVYYCNAASSRWPEYDYWGQGTQVTVSS | high polyreactivity |
| QVQLVESGGGLVQAGGSLRLSCAASGRISGYYAMGWYRQAPGKEREFVAAITRSGGSTYYADSVKGRFTISRDNAKNTVYLQMNSLKPEDTAVYYCAADTRGFSYGNGYGYWGQGTQVTVSS | low polyreactivity |
| QVQLVESGGGLVQAGGSLRLSCAASGRISIKNAMGWYRQAPGQERELVAAIRWSADSTYYADSVKGRFTISRDNAKTTVYLQMNSLKPEDTAVYYCAATGRLRYYWGQGTQVNVSS | high polyreactivity |
| QVQLVESGGGLVQAGGSLRLSCAASGRISIWYAMGWYRQAPGKERELVARISTSSGRTYYADSVKGRFTISRDNAKNTVYLQMNSLKPEDTAVYYCNAAGYRIYFSTRYDYWGQGTQVTVSS | high polyreactivity |
| QVQLVESGGGLVQAGGSLRLSCAASGRISIWYDMGWYIQAPGKEREFVASITSGGSTYADSVKGRFTISRDNAKNTVYLQMNSLKPEDTAVYYCAADEAPYVPSEQRHSRFSHWGQGTQVTVSS | low polyreactivity |
| QVQLVESGGGLVQAGGSLRLSCAASGRISKGYAMGWYRPAPGKERELVAAISWRTSSTYYADSVKGRFTISRDNAKNTVYLQMNSLKPEANAVYYCAAETWLGSWRQVGMDYWGQGTQVTVSS | high polyreactivity |
| QVQLVESGGGLVQAGGSLRLSCAASGRISLSNAMGWYRQAPGKEREFVAAITKRSDRTYYADSVKGRFTISRDNAKNTVSLQMNSLKPEDTAVYYCAAKPLFGTRDDYWGQGTQVTVSS | low polyreactivity |
| QVQLVESGGGLVQAGGSLRLSCAASGRISNDYAMGWYRQAPGKDRELVATITFSGGDTYYADSVKGRFTISRDHAKNTVYLQMNSLKPEDTAVYYCAASKWPSYSGGWWRLLFDYWGQGTQVTVSS | low polyreactivity |
| QVQLVESGGGLVQAGGSLRLSCAASGRISNKYAMGSYRQAPGKERELVAAISYSGGTTYYADSVKGRFTISRDNAKNTVYLQMNSLKPEDTAVYYCARVWSKGYGYYWGYYWGQGSQVTVSS | low polyreactivity |
| QVQLVESGGGLVQAGGSLRLSCAASGRISNRYAMGWYRQAPGKERELVAAIRRSTTSTYADSVKGRFTISRDNEKNTFYLQMNSLKPEYTAVYYCAARGGRRGGYYSWGQGTQVTVSA | high polyreactivity |
